This data set in a line: label from the status in PepcDB records.
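Note: failed if final PepcDB status was selected cloned or expressed and not failed if soluble or beyond.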

As for “MEVNRLSALTPPMGWNSWDCYGASVTEEEVLGNAEYMANHLKKYGWEYIVVDIQWYEPTANSSAYNPFAPLCMDEYGRLLPATNRFPSAKNGAGFKPLSDAIHDLGLKFGIHIMRGIPRQAVYENSPVLGSTKTAREIAHTNSICPWNTDMYGVDPTKEGAQSYYNSLFELYAQWGVDFVKVDDIAASRLYDTHLEEIKMIQRAIQACGRPMVLSLSPGPAPIKYAHHFKTNANMWRITDDFWDDWSLLYQMFERCEVWEKHIGTGHWPDCGMLPLGHIGIRSVDGPGGDRWTRFTKDEQLTMMNLWAICHSPLMFGGELRDNDEWTLSLLTNEGILSINQKSVLNRFVYREEDKVAWAANGRNGEAYVALFNLHDQQKTLQFRLDMVGIMETVQLFNVWDRSFLQSLAPSESFQIELKPHQSMMLKLSPDR”, the protein production result is “not failed”.
For “MEVPKEQIATLIEHGLYDSAEMLGCFLVSSPTVSAETSPQLKAENLILLGDALFHQREHRRAIHTYKQALHHYTRIPKQSSGISRSSLSLSTRSSVNASSISAINENEVRFKIASSHFALNETKAAIAEMESVKTRSLEMNILMAKLHRNSGYNRGAIAFYKECLRQCPYVLEAVIGLAELGVSAKDIISSFTQTSNRSAKVSLDQIDPTRWLQRYVEAQCCVASHAYKGALELFAELLQRFPNNVHLLTETAKVEAIIGKNDEAIMRFEKVRSIDPYTLTSMDEYAMLLQIKCDYSRLNKLVHDLLSVDHTRAEVFVALSVLWERKDARTALSYAEKSIRVDERHIPGYIMKGNLLLQAKRPEAAAIAFRAAQNLRSDLRSYQGLVHSYLAFGKTKEALYTAREAMNAMPQSAKALKLVGDVHAFTSSGREKAKKFYESGLRLEPGYLGAVLALAELHLMEGRNGDAVSLLERYLKDYADDSLHVKLAQVFAATNMLQDSLSHFQAALRINPQNEAAKKGLDRLEKQMKGIDPDATDENDENDVEDVDGDTEEAELM” the value was “failed”; for “MEVSDGSSQVLNSMKHVASLRADEDPDETSLLLSSTLLDLVVFRLVLVLYCVRVLMLDQYQETIALSQEVMMEDGRREFNVPMNCPIPVVKRRMKAPKHVDEDLFKIFPQATTYLRQIQKGGGSGCFEFIRGEVCTKDLSQNNTFYFIF”, “failed”; for “MEYEHITHSFEPVYDENSRILILGTLPSVASRENNFYYGHKQNRFWKLLAYLLDEPVPETIDEKKYMLFKNHIAIWDVIQSCDIKGSSDSSIKNVEPTDIRKILETADIKQVYANGNKAGALYKKYQLPLTGMEAVTLPSTSPANAAWSFERLCEAWTRILANL”, “failed”.
For “MEYETILKLFSLVYIIIMMTIDFWIFGLILRREYVRVKGLLIILSIVLMMGLESLALAQLNVLLFISGMLLVLIPLFISFLIKDHSINVNRNWKYGLLLSSVIVFDELAMGYLYGNYFTPLPNPLLTAINNPAYGAMMLGDAIFFLYILRRRSIMEFAITTFAISMAFMPSLYLMDRMLEFIMSILTSLFMIVNIVLLYLTEMRMLTFQGQLVAISLSLFNLLMMLGLTFFASLSNLYFLTLSMIASMVWYFFLIFYNVPAKKISPKPFLFLVLVNLTELAMGFGESVLGFNLTNSLFVNTMNCEMMIGSHMMRSPFNNPFWWLFPINPLTMITMTIMKYNLLGKLVMVPFMTIMTTTMAPFYVIMMGAEMSYLVYERFKKVKTRYLKAWTLGILTGIPIFVVLIPYYTNYYIFGMSGMIFPVTLAPFVISLVVIALFSTLFGRGVYCNLVCMSAHMWSNVFYEQFSAKKNSKFWDYLRWIFLVPLIIAFYLFVMMGLGKIKLPIDPLDFYGMFTLNYIWWFFYFLTPIFGIYSCARQGWCGFGTFNGIFNKVLFKIRAKDVNTCKECVSKECDTSCPVKIPISNDILKKGYSNRISCIVCARCVDACDNVEIVNVVTILKNRESKSF” the value was “failed”.
In the case of “MEYFLENPDHLWYLIAGISFVIELSIMGLSGPLLFFAIASLTTGILVTVGFVEGWQSEIFTVGVLTAIIAAILWKPLKSLQNSKDTTDNSSDMVGLTVLASTEINVSSGSIRYSGIDWQARLAEEANGESISAQSQCVIVAITGNIMLVKSL” it was “failed”.
On to “MEYHLQTPLKFEDIEKLNAGDIVYISGEILTARDEAHARILEMEERGEELPFSLEGAVIYHCGPLMQQTESGWKVISAGPTTSGRMSKMTPPLLKTHKVRAIIGKGGMKNVADSLKSCCVYLAYTGGCAALAAELIKDVKTVHWPDLGMPEAVWILRVEKFGPLIVGIDAKGKDIFSEVREKAEKALEELQK”, for which the protein production result is recorded as “failed”.
For “MEYKPMPYPIIDSHCHLDFPKFNPDREEAIQRARKAGVVGMVNSGISLKGNRISLELAEKNEDIHAALGLSPDIGREGSDKDINAILAQIEANAGKAVAIGEAGLDFQDCKTDEERRRQTASFKKVIELAKNLEKPLVVHARMAEAEVLELARDVDTVIYHCYSGSVETMKEIVDAGYYISLATLVCFSEHHQTLAAEVPPENLLLETDSPFLSPRRGRNEPAFIVDSIPVVAEYKEMEPAEIAKFATENARRVFKILEHHHHHH” the value was “failed”.
For “MEYLGPVLWSPAGKPPTWWDSLPTDRPIVYATLGTSGGRNLLQLVLNALAELPVTVIAATAGRSDLKTVPANAFVADYLPGEAAAARSAVVVCNGGSLTTQQALVAGVPVIGVAGNLDQHLNMEAVERAGAGVLLRTERLKSQRVAGAVMQVISRSEYRQAAARLADAFGRLEHHHHHH” the value was “failed”; for “MEYQHWLREAISQLQASESPRRDAEILLEHVTGRGRTFILAFGETQLTDEQCQQLDALLTRRRDGEPIAHLTGVREFWSLPLFVSPATLIPRPDTECLVEQALARLPEQPCRILDLGTGTGAIALALARERPDCEITAVDRMPDAVALAQRNAQHLAIKNIHILQSDWFSALAGQQFAMIVSNPPYIDEQDPHLQQGDVRFEPLTALVAADSGMADIVHIIEQSRNALVSGGFLLLEHGWQQGEAVRQAFILAGYHDVETCRDYGDNERVTLGRYYQ”, “failed”.
For “MEYQLQQLASLTLVGIKETYENGRQAQQHIAGFWQRCYQEGVIADLQLKNNGDLAGILGLCIPELDGKMSYMIAVTGDNSADIAKYDVITLASSKYMVFEAQGAVPKAVQQKMEEVHHYIHQYQANTVKSAPFFELYQDGDTTSEKYITEIWMPVKG”, the protein production result is listed as “not failed”.
As to “MEYSTDLGRRVLLTLAGVALLLVVGLVLSQFLPTLVFTVFLYYASRPIYRRLGRLPLPKSFLKRAVPYQKQVHAAATIFFFLLPFVVLVGYTLVLVIPELQSFFGEGGLGAAYLSQFQELQGGSPPGPLADLGFSEVLAMGPAEVIDLLRNATVQSWLGRVSDTLIGSLSLLTSLLLRVFIMFAGTYYLLTDGPRLVGWFLDTFDGSGVLREYAAAVDEELSSILFGNILNALVTGVIGIFVFSLYNLVAPGSVQIPFAPLVGALTGIGSLIPVVGMKIVYLPVAVLLAVSAVVTGQTAALAWVALFLVVTLVVVDTIPDFLIRPYVSGDLTHVGLLMFAYILGPIAFGFYGIFLGPMLLVLAAQFFRIIVPYIITGTVETTQTSLSEYDSGES”, the protein production entry is “failed”.
In the case of “MEYTTLAVLAGLPEDPHGAVGLPIYAVAAYGFKTLEEGQERFATGEGYVYARQKDPTAKALEERLKALEGALEAVVLASGQAATFAALLALLRPGDEVVAAKGLFGQTIGLFGQVLSLMGVTVRYVDPEPEAVREALSAKTRAVFVETVANPALLVPDLEALATLAEEAGVALVVDNTFGAAGALCRPLAWGAHVVVESLTKWASGHGSVLGGAVLSRETELWRNYPQFLQPDLKGQIPWEALRARCFPERVRTLGLSLCGMALSPFNAYLLFQGLETVALRVARMSETARFLAERLQGHPKVKALRYPGLPEDPAHRNARKYLASGGPILTLDLGDLERASRFLGAIRLLKAANLGDARTLLVHPWTTTHSRLKEEARLQAGVTPGLVRVSVGLEDPLDLLALFEEALEAV” it was “not failed”.
In the case of “MEYVNPEGLRLDGRRFNEMRQIVAEVGVVSKADGSAVFEMGNTKVIAAVYGPREIQNKSQQKKNDHAVVLCEYSMAQFSTGDRRRQKFDRRSTELSLVIRQTMEACILTELMPHSQIDIFLQVLQADGGTRSACINAATLALADAGIPMRDLAVSCSAGYLNSTPLLDLNYVEDSAGGADVTVGILPKLDKVSLLQMDAKLPMETFETVFALASEGCKAIAERIREVLQENTKQLEYRRAA” it was “failed”; in that of “MEYVYAALILNEADEEINEDNLTDVLDAAGVDVEESRVKALVAALEDVDIEEAVDQAAAAPVPASGGAAAPAEGDADEADEADEEAEEEAADDGGDDDDDEDDEASGEGLGELFGLEHHHHHH”, “not failed”.

The values are drawn from a protein production outcome set (Wang et al. 2014).
